Changes are numbered by the printed parent chain. Names and notes keep the numbering of the source. “Also recorded” adds a separate entry of the source.
B1: ZmCGT: UGT708A6 from Zea mays which acts as a dual C/O-glycosyltransferase (protein, UniProt A0A096SRM5 1-475, looked up)
UDP-glycosyltransferase 708A6: MAANGGDHTSARPHVVLLPSAGMGHLVPFARLAVALSEGHGCNVSVAAVQPTVSSAESRLLDALFVAAAPAVRRLDFRLAPFDESEFPGADPFFLRFEATRRSAPLLGPLLDAAEASALVTDIVLASVALPVARERGVPCYVLFTSSAAMLSLCAYFPAYLDAHAAAGSVGVGVGNVDIPGVFRIPKSSVPQALHDPDHLFTQQFVANGRCLVACDGILVNTFDAFEPDAVTALRQGSITVSGGFPPVFTVGPMLPVRFQAEETADYMRWLSAQPPRSVVYVSFGSRKAIPRDQLRELAAGLEASGKRFLWVVKSTIVDRDDTADLGGLLGDGFLERVQGRAFVTMGWVEQEEILQHGSVGLFISHCGWNSLTEAAAFGVPVLAWPRFGDQRVNAALVARSGLGAWEEGWTWDGEEGLTTRKEVAKKIKGMMGYDAVAEKAAKVGDAAAAAIAKCGTSYQSLEEFVQRCRDAERK
B2: GtCGT: wild-type C-glycosyltransferase GtUF6CGT1 from Gentiana triflora (SEQ ID NO: 1) (protein, listed as Gentiana triflora)
chain: MGSLTNNDNLHIFLVCFIGQGVVNPMLRLGKAFASKGLLVTLSAPEIVGTEIRKANNLNDDQPIKVGSGMIRFEFFDDGWESVNGSKPFDVWVYINHLDQTGRQKLPIMLKKHEETGTPVSCLILNPLVPWVADVADSLQIPCATLWVQSCASFSAYYHYHHGLVPFPTESEPEIDVQLPGMPLLKYDEVPDYLHPRTPYPFFGTNILGQFKNLSKNFCILMDTFYELEHEIIDNMCKLCPIKPIGPLFKIPKDPSSNGITGNFMKVDDCKEWLDSRPTSTVVYVSVGSVVYLKQEQVTEMAYGILNSEVSFLWVLRPPSKRIGTEPHVLPEEFWEKAGDRGKVVQWSPQEQVLAHPATVGFLTHCGWNSTQEAISSGVPVITFPQFGDQVTNAKFLVEEFKVGVRLGRGELENRIITRDEVERALREITSGPKAEEVKENALKWKKKAEETVAKGGYSERNLVGFIEEVARKTGTK
B3: GtCGT V93Q/Y193F/P385A: GtCGT^V93Q/Y193F with additional P385A (Table 12 No. 15) (protein, listed as Gentiana triflora)
chain: B2 chain with V93Q, Y193F, P385A
B4: Y193F (protein, listed as Gentiana triflora)
chain: B2 chain with Y193F
B5: GtCGT^V93Q (protein)
chain: B2 chain with V93Q
B6: GtCGT V93Q/Y193F/I323S: GtCGT^V93Q/Y193F with additional I323S (Table 10 No. 12) (protein, listed as Gentiana triflora)
chain: B2 chain with V93Q, Y193F, I323S
B7: F17G (protein, listed as Gentiana triflora)
chain: B2 chain with F17G
B8: V132A (protein, listed as Gentiana triflora)
chain: B2 chain with V132A
B9: L164G: GtCGT single mutant L164G (protein, listed as Gentiana triflora)
chain: B2 chain with L164G
B10: R322D (protein, listed as Gentiana triflora)
chain: B2 chain with R322D

How the values were obtained:
FK = test: dcII production from FK by C-glycosyltransferase candidates and GtCGT mutants in FK-producing E. coli, flask culture; type: cell-based; conditions: for dcII production: FK-producing E. coli strain; for KA production compared with wild-type GtCGT: mutants transformed into FK strains
Description: Flask culture was carried out under the following conditions. Colonies were seeded into 10 mL of LB medium supplemented with appropriate concentrations of antibiotics, followed by culture overnight at 37° C. The culture fluid thus prepared was passaged into a 250 mL baffled flask containing 50 mL of R/2 medium supplemented with 3 g/L yeast extract and 20 g/L glucose (with 0.45 g/L ascorbic acid if necessary), followed by culture at 30° C. and 200 rpm. The composition of R/2 medium (pH 6.8) was as follows (per liter): 2 g of (NH4)2HPO4, 6.75 g of KH2PO4, 0.85 g of citric acid, 0.7 g of MgSO4·7H2O, and 5 ml of trace metal solution (TMS) [10 g of FeSO4·7H2O, 2.25 g of ZnSO4·7H2O, 1 g of CuSO4·5H2O, 0.5 g of MnSO4·5H2O, 0.23 g of Na2B4O7·10H2O, 2 g of CaCl2·2H2O, and 0.1 g of (NH4)6Mo7O24 per liter of 5 M HCl]. When OD600 of the culture fluid reached 0.6-0.8, 1 mM isopropyl β-D-1-thiogalactopyranoside (IPTG) was added to induce exogenous gene expression, followed by culture for 48 hours.
After culture, production analysis was performed under the following conditions. After flask culture, 50 mL of the culture fluid was centrifuged at 4,000 g for 30 minutes, and then the supernatant was desalted and concentrated. Here, Oasis HLB cartridges (Water) were used. The supernatant was concentrated 1-fold for FK, 30-fold for KA, 45-fold for dell, and 200-fold for carminic acid. The concentrated sample was re-dissolved in an appropriate volume of DMSO and impurities were then removed therefrom using a 0.22 μm PTFE filter. The prepared sample was analyzed by MS (LC/MSD VL; Agilent) coupled with HPLC (1100 series; Agilent). An Eclipse XDB-C18 column was used, 0.1% formic acid was used as buffer A, and methanol was used as buffer B. Analysis was performed in an ESI negative mode. For more accurate analysis of carminic acid, LC-MS/MS was performed using an HPLC Triple Quadrupole Mass Spectrometer (LCMS-8050, Shimadzu) (MRM mode).
Flask culture started by seeding colonies from LB agar plates into test tubes containing 10 mL of LB. As such, an appropriate concentration of antibiotics was added, followed by culture overnight at 37° C. at 220 rpm. 1 mL of the seed culture thus prepared was inoculated into a 250 mL baffled flask containing 50 mL of R/2 medium (supplemented with 3 g/L yeast extract and 20 g/L glucose), followed by culture at 30° C. and 200 rpm. The composition of R/2 medium was as follows (pH 6.8, per 1 L): 2 g of (NH4)2HPO4, 6.75 g of KH2PO4, 0.85 g of citric acid, 0.8 g of MgSO4·7H2O, and 5 ml of trace metal solution (TMS). The composition of TMS was as follows (based on 0.1 M HCl, per 1 L): 10 g of FeSO4·7H2O, 2.25 g of ZnSO4·7H2O, 1 g of CuSO4·5H2O, 0.58 g of MnSO4·5H2O, 0.02 g of Na2B4O7·10H2O, 2 g of CaCl2·2H2O, and 0.1 g of (NH4)6Mo7O24·4H2O. When OD600 of the culture fluid reached 0.6-0.8, 0.5 mM IPTG was added to induce exogenous enzyme expression, followed by culture for 48 hours. In all experiments for producing flavokermesic acid, kermesic acid, dcII, and carminic acid, 0.45 g/L of ascorbic acid was further added.
The production of carminic acid (CA) from FK was performed by two biosynthesis pathways, both of which require monooxygenase and C-glycosyltransferase. FK may be oxidized into KA or may be C-glycosylated into dcII. […] In order for the enzyme to have activity, however, it must be glycosylated, and since it also has a transmembrane helix and a signal peptide, successful expression in cells such as E. coli is considered difficult.
For the enzymes selected above, pCDF-DcCGT, pCDF-MiCGT, pCDF-SfCGT, pCDF-EnCGT, pCDF-OsCGT, pCDF-FeCGT, pCDF-GmCGT, pCDF-AvCGT, pCDF-AvCGT, pCDF-ZmCGT, and pCDF-GtCGT were constructed, and all genes except for the iroB gene amplified from genomic DNA of E. coli Nissle using the iroB_gib_F primer and the iroB_gib_R primer were artificially synthesized and inserted into the NdeI site of the pCDFDuet-1 plasmid using Gibson assembly. […]

aloesone = test: Aloesin production from aloesone by GtCGT and variants in E. coli BL21(DE3), flask culture; type: cell-based; conditions: for aloesin production increase: compared to conventional concentration of 0.3 μg/L (ALS strain with GtCGT^V93Q/Y193F); for aloesin production: variant on pCDF-RpALS-GtCGT plasmid (additional RpALS), with pWAS-anti-pabA, pRSF-RpALS, pBBR1-zwf
Description: Also, in LC-MS/MS for aloesin analysis, MS (Agilent 6550 iFunnel Q-TOF LC/MS System) coupled with ultra HPLC (UHPLC; 1290 Infinity II LC System; Agilent) was used. Here, an Eclipse-plus C18 column was used, and 0.1% formic acid was used as buffer A, and acetonitrile to which 0.1% formic acid was added was used as buffer B.
Thereafter, in order to test the production of aloesin, the pCDF-GtCGT or pCDF-GtCGT^V93Q/Y193F plasmid was transformed into the BL21(DE3) strain containing pWAS-anti-pabA, pRSF-RpALS, and pBBR1-zwf plasmids, followed by flask culture.
Similarly to the test for increased production of aloesone, RpALS was additionally introduced to increase aloesin production. To this end, pCDF-RpALS-GtCGT^V93Q/Y193F was constructed instead of introducing pCDF-GtCGT^V93Q/Y193F. Specifically, RpALS was amplified from pCDF-RpALS using pCDFDuet F and pCDFDuet R primers, and inserted into the NcoI and BamHI sites of the pCA plasmid through Gibson assembly. Thereafter, four plasmids, namely pRSF-RpALS, pCDF-RpALS-GtCGT^V93Q/Y193F, pWAS-anti-pabA, and pBBR1-zwf, were transformed into E. coli BL21(DE3), which was named an ALS strain.
(§1) Mutagenesis for a specific sequence was performed in the same manner as in Example 2. Here, plasmids containing gene mutants were constructed using pCDF-RpALS-GtCGT^V93Q/Y193F as a template and using primer pairs shown in Table 11 below. The plasmids thus constructed were transformed into the BL21 (DE3) strain along with three plasmids, namely pWAS-anti-pabA, pRSF-RpALS, and pBBR1-zwf, followed by flask culture under the same conditions as in Example 3 using the strains thus constructed. The concentration of aloesin produced was measured in an MRM mode of the HPLC Triple Quadrupole Mass Spectrometer (LCMS-8050, Shimadzu) of the KAIST Biocore Center.
as §1, with “13” for “11”

Molecule | dcII production from FK (in words) (FK; FK-producing E. coli) | KA production compared with wild-type GtCGT (FK; flask culture) | further results
B1 | able to successfully convert FK into dell; also recorded: very small amount |  | main product from FK (FK; FK-producing E. coli): O-glycosylated FK
B2 | able to successfully convert FK into dell |  | dcII production (FK; flask culture): 0.13 mg CA eq/L; dcII production (FK; galU, pgm and ndk overexpressed): 0.30 mg CA eq/L
B3 |  |  | aloesin production increase (aloesone): ≥ 14.1 fold; aloesin production (aloesone): 4.23 µg/L
B4 | second highest concentration of dell | higher KA production than wild-type GtCGT | 
B5 | highest dcII production | higher KA production than wild-type GtCGT | dcII production increase compared to wild-type GtCGT (FK; FK strain, flask culture): about 2.9 fold
B6 |  |  | aloesin production increase (aloesone): ≥ 25.8 fold; aloesin production (aloesone): 7.75 µg/L
B7 |  | higher KA production than wild-type GtCGT | 
B8 |  | higher KA production than wild-type GtCGT | 
B9 |  | higher KA production than wild-type GtCGT | 
B10 |  | higher KA production than wild-type GtCGT | 
